{"source": "paper PMC2806190", "about": "(Cell, 2009)", "molecules": {"B1": {"name": "Use1 cytoplasmic domain (residues 1–212), TF tag removed (domain or fragment, S. cerevisiae, UniProt P53146 1-212, looked up)", "chain": "MAETSNDPFLSYVLSSKQLTNLNRLRRKAVTKQLGSSDDNKVSEEFLRYQHTYQREAFEYLQTKHDAHKIMESQYEQYQSSSKTRRYSIDLDSVDAVDTESQTEYPNEEFIDRNEDSEAVMELRKRLLGKGQNKGLGYETTKSVDRQIEDQDTLQQDLIQDMSKLVGSLKQGAVAFQSALDEDKQVLGAAEIGIQVASQGLMDVSGKLRKYD"}, "B2": {"name": "TF-Use1 (residues 1–212 fused to trigger factor) (domain or fragment, S. cerevisiae, UniProt P53146 1-212, looked up)", "chain": "B1 chain"}, "B3": {"name": "N-terminal peptide of Use1 (residues 1–35) (peptide, UniProt P53146 1-35, looked up)", "peptide": "MAETSNDPFLSYVLSSKQLTNLNRLRRKAVTKQLG"}}, "key": {"[1]": {"target": "Sec39 (residues 1–709) (S. cerevisiae) (UniProt Q12745)"}, "[2]": {"target": "Dsl1 (residues 1–754) (S. cerevisiae) (UniProt P53847)"}, "His-tagged Sec39": {"target": "T1, His-tagged Sec39 (S. cerevisiae, UniProt Q12745 1-709)", "T1 sequence (looked up)": "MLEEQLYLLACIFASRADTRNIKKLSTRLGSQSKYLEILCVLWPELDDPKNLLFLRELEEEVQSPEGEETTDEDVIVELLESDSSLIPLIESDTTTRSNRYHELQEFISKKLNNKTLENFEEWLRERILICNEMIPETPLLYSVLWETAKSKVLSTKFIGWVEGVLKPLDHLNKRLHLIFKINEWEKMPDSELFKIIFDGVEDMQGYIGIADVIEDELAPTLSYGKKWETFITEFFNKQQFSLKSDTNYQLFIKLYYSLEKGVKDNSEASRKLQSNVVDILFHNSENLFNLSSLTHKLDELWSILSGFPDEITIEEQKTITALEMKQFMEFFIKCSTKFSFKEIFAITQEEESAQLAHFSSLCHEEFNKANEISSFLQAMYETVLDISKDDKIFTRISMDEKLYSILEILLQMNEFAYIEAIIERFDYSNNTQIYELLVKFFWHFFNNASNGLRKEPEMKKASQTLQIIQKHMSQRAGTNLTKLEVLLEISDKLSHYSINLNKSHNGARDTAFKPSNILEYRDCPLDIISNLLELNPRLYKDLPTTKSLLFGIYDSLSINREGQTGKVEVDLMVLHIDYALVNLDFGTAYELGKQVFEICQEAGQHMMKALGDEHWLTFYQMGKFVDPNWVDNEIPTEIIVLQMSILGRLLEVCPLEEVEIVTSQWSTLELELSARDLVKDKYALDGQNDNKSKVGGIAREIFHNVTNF", "test": "co-purification"}, "Sec39 (residues 1–709) [3]": {"target": "T2, Sec39 (residues 1–709) (S. cerevisiae, UniProt Q12745 1-709)", "T2 sequence (looked up)": "T1 sequence (looked up)", "test": "co-purification"}, "Sec39 residues 1–392": {"target": "T3, Sec39 residues 1–392 (S. cerevisiae, UniProt Q12745 1-392)", "T3 sequence (looked up)": "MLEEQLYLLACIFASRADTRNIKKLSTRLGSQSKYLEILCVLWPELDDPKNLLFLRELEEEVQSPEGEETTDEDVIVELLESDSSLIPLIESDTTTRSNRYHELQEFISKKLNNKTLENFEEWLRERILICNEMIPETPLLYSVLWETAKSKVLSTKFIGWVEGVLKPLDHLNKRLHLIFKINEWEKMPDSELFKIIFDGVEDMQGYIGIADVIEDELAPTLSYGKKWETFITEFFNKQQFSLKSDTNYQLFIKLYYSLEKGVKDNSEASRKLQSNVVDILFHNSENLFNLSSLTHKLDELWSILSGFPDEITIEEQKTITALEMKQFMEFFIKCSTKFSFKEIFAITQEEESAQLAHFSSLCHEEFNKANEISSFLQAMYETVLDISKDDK", "test": "SEC"}, "Sec39 (residues 1–709) [4]": {"target": "T2, Sec39 (residues 1–709)", "test": "SEC"}}}
{"molecule": "Dsl1 (residues 1–754) (from UniProt P53847 1-754) (natural protein)", "values": [{"measurement": "Kd", "setting": "[1]", "value": 10, "unit": "nM"}]}
{"molecule": "Tip20 (residues 1–701) (from UniProt P33891 1-701) (natural protein)", "values": [{"measurement": "Kd", "setting": "[2]", "value": 100, "unit": "nM"}]}
{"molecule": "B1", "values": [{"measurement": "binding result", "setting": "His-tagged Sec39", "value": "binds"}, {"measurement": "binding result", "setting": "Sec39 (residues 1–709) [3]", "value": "binds"}]}
{"molecule": "B2", "values": [{"measurement": "binding result", "setting": "Sec39 residues 1–392", "value": "binds"}]}
{"molecule": "B3", "values": [{"measurement": "binding result", "setting": "Sec39 (residues 1–709) [4]", "value": "binds"}]}
